This note sets out measurements from patent publication US20240376221A1 (Genmab, published 2024).

For assay [1], the target named is T1, recombinant cynomolgus monkey OX40 (Acro Biosystems, cat. no. OXO-C5220) (cynomolgus monkey, UniProt P43489 29-216 (human entry), limits assumed).
T1 construct: bought soluble protein; also called Cyno OX40
T1 chain: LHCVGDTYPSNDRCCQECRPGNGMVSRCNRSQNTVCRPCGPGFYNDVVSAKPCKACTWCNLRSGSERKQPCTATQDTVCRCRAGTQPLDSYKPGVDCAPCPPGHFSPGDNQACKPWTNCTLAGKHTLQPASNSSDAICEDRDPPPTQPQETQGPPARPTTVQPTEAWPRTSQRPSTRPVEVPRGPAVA
Nature of the assay: BLI, Ab on AHC sensor, OX40 analyte; * binding observed, less reliable fit. As to the method:
(§1) Experiments were carried out while shaking at 1,000 RPM at 30° C. […] Next, AHC sensors were loaded with antibody (1 μg/mL in Sample Diluent) for 600 s. After a baseline measurement in sample diluent (100 s), the association (200 s) and dissociation (1,000 s) of human OX40 (Acro Biosystems, cat. no. OXO-H5224), and cynomolgus monkey OX40 (Acro Biosystems, cat. no. OXO-C5220) was determined using a concentration range of 0.78 to 800 nM with 2-fold dilution steps.
(§2) Data were acquired using Data Acquisition Software v12.0 (Sartorius) and analyzed with Data Analysis Software v12.0 (Sartorius). Data traces were corrected per antibody by subtraction of the reference sensor. The Y-axis was aligned to the last 10 s of the baseline and Interstep Correction alignment to dissociation as well as Savitzky-Golay filtering were applied. Data traces with a response<0.05 nm were excluded from analysis. […] The data was fitted with the 1:1 model using a window of interest for the association of 200 s and dissociation times set at 50 s, 200 s and 1,000 s. The dissociation time was chosen based upon R² value, visual inspection of the curve and at least 5% signal decay during the dissociation step.
For orientation: BLI is a label-free optical method that tracks binding on a fibre tip over time.

Assay [2] addresses T2, human FcγRIa, cell surface-expressed (human, UniProt P12314 16-374).
T2 construct: whole, on cells; also called CD64; FcγR1a on ExpiCHO-S cells
Nature of the assay: flow cytometry, ExpiCHO-S cells transfected with human FcγRIa. Background: A flow cytometer gives signals particle by particle.

The target of assay [3] is T1, recombinant cynomolgus monkey OX40 …. In words: BLI, Ab on AHC sensor, OX40 analyte. As to the method:
as §1, §2

For assay [4], the target named is T3, His-tagged human recombinant FcγRIIa 167-His (human, UniProt P12318 34-218).
T3 construct: bought; also called FcγRIIa[H]; not shown: His-tag
T3 sequence (looked up): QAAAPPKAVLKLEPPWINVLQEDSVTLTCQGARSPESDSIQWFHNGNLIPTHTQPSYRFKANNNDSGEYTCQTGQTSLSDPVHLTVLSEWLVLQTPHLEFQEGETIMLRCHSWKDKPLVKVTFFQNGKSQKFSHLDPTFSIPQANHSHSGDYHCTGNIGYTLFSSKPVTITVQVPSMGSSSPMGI
Nature of the assay: SPR, His-tagged FcγRIIa[H] captured on an anti-His chip, antibody injected. As to the method:
(§3) Biacore Series S Sensor Chips CM5 (Cytiva, cat. no. 29104988) were covalently coated with anti-His antibody using amine-coupling and His capture kits (Cytiva, cat. no. BR100050 and cat. no. 29234602) according to the manufacturer's instructions. […] After three start-up cycles of HBS-EP+ buffer, antibody samples were injected for 12 cycles per sample to generate binding curves using antibody concentration ranges of 0 to 3,000 nM for FcγRIa and 0 to 10,000 nM for the other FcγRs. […] Dissociation from the anti-His-coated surface was performed by regeneration of the surface using 10 mM Glycine-HCl pH 1.5 (Cytiva, cat. no. BR100354).
On the technique in general: SPR reads the build-up and loss of mass on a sensor chip optically.

Assay [5] addresses T4, His-tagged human recombinant FcγRIIb (human, UniProt P31994 43-217).
T4 construct: bought; also called FcγRII2b [sic]; not shown: His-tag
T4 sequence (looked up): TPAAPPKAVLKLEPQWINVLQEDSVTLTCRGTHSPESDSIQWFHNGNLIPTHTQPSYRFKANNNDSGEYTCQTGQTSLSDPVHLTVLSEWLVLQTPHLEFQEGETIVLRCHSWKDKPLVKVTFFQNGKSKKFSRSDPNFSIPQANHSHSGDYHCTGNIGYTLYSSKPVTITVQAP
Nature of the assay: SPR, His-tagged FcγRIIb captured on an anti-His chip, antibody injected. As to the method:
as §3

The target of assay [6] is T5, His-tagged human recombinant FcγRIIIa 176-Phe (human, UniProt P08637 17-208).
T5 construct: bought; also called FcγRIIIa[F]; not shown: His-tag
Nature of the assay: SPR, His-tagged FcγRIIIa[F] captured on an anti-His chip, antibody injected. The method, then:
as §3

Assay [7] concerns the target T6, His-tagged human recombinant FcγRIIa 167-Arg (human, UniProt P12318 34-218).
T6 construct: bought; also called FcγRIIa[R]; not shown: His-tag
T6 sequence (looked up): T3 sequence (looked up) with H134R
In words: SPR, His-tagged FcγRIIa[R] captured on an anti-His chip, antibody injected. The method, then:
as §3

Assay [8] addresses T7, His-tagged human recombinant FcγRIa (human, UniProt P12314 16-288).
T7 construct: bought; also called FcγRIa (SPR); not shown: His-tag
In words: SPR, His-tagged FcγRIa captured on an anti-His chip, antibody injected. As to the method:
as §3

The target of assay [9] is T8, His-tagged human recombinant FcγRIIIa 176-Val (human, UniProt P08637 17-208).
T8 construct: bought; also called FcγRIIIa[V]; not shown: His-tag
In words: SPR, His-tagged FcγRIIIa[V] captured on an anti-His chip, antibody injected. The method, then: as §3

Assay [10] deals with T7, His-tagged human recombinant FcγRIa. In words: SPR, His-tagged FcγRIa captured on an anti-His chip, antibody injected. The method, then:
as §3
The source holds these as a separate data set.

The Kd is the free concentration of one partner at which half of the binding sites on the other are occupied at equilibrium, for simple one-to-one binding. As a reminder, the koff is the first-order rate constant of dissociation. The term kon denotes the rate constant with which the complex forms. For orientation: EC50 (read off the curve) means the midpoint of the concentration-response curve.

Substitutions are numbered along the chain they refer to. In names and notes the source's numbering stands. Read-outs that look alike come from different tables or passages of the source.

T2 sequence (P12314 16-374): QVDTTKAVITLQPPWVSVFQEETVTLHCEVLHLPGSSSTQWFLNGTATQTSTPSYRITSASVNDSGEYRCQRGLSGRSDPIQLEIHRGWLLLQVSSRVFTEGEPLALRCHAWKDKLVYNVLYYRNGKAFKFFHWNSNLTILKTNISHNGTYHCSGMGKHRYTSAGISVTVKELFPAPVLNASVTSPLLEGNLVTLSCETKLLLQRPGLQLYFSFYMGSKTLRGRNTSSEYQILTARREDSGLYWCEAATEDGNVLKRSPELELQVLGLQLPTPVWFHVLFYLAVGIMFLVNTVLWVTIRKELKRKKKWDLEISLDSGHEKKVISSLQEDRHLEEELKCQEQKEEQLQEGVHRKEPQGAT
T7 sequence (P12314 16-288 limits assumed): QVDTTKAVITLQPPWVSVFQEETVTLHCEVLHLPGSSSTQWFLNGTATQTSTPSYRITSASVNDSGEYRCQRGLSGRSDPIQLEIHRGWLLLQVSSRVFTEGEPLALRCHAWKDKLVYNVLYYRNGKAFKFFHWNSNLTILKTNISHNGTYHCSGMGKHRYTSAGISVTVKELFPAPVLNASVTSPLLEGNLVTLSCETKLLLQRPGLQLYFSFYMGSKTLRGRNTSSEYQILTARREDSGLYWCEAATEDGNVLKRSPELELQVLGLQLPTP
T8 sequence (P08637 17-208 F176V limits assumed): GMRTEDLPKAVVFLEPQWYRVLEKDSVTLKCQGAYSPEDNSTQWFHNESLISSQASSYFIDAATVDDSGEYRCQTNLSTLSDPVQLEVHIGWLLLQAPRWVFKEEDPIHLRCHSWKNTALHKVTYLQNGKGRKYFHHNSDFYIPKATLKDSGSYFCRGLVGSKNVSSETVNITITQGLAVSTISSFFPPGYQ
T5 sequence (P08637 17-208 limits assumed): as the sequence (P08637 17-208 F176V limits assumed) above, with V160F counted along it

B1: IgG1-CD134-012 (antibody)
heavy: not shown
light: DIVMTQTPASVEAAVGGTVTIKCQASENIYSSLAWYQQKPGQPPKLLIYRTSTLASGVPSRFKGSGSGTQFTLTISDLESDDAATYYCQSYYHNSGGGYDYGFGGGTEVVAKRTVAAPSVFIFPPSDEQLKSGTASVVCLLNNFYPREAKVQWKVDNALQSGNSQESVTEQDSKDSTYSLSSTLTLSKADYEKHKVYACEVTHQGLSSPVTKSFNRGEC
notes: rabbit-human chimeric IgG1
For the molecule B1, in [1], the Kd was 180 nM, the koff turned out to be 0.018 s⁻¹ and the kon was determined as 98000 M⁻¹ s⁻¹.

B2: IgG1-CD134-003 (antibody)
heavy: not shown
light: AAVLTQTPSPVSAAVGGTVTIKCQSSQIVVNNNFLSWYQQKPGQPPKLLIYDASNLASGVPDRFSGSGSGTQFTLTISGVQSDDAATYYCLGGYDDDAENAFGGGTEVVVQRTVAAPSVFIFPPSDEQLKSGTASVVCLLNNFYPREAKVQWKVDNALQSGNSQESVTEQDSKDSTYSLSSTLTLSKADYEKHKVYACEVTHQGLSSPVTKSFNRGEC
notes: rabbit-human chimeric, wild-type IgG1 Fc
In the case of B2, the “EC50 (read off the curve)” value in assay [2] was approximately 0.7 µg/mL. In addition, in [3], the Kd came to 3.5 nM, the koff worked out at 0.00096 s⁻¹ and the kon turned out to be 280000 M⁻¹ s⁻¹.

B3: IgG1-CD134-007 (antibody)
heavy: not shown
light: AQVLTQTPSPVSAAVGGTVTISCQSSESVWNNNWLAWYQQKPGQPPNLLIYEASTLASGVSSRFKGSGSGTQFTLTVSEVQSDDAATYYCQGGYYDSSPIWTFGGGTEVVVKRTVAAPSVFIFPPSDEQLKSGTASVVCLLNNFYPREAKVQWKVDNALQSGNSQESVTEQDSKDSTYSLSSTLTLSKADYEKHKVYACEVTHQGLSSPVTKSFNRGEC
notes: rabbit-human chimeric IgG1
Turning to B3, in assay [3], the Kd turned out to be 7.1 nM, the koff stood at 0.0018 s⁻¹ and the kon is 260000 M⁻¹ s⁻¹.

B4: IgG1-CD134-003-HC6LC2 (antibody)
heavy: not shown
light: AAVLTQSPSSLSASVGDRVTITCQSSQIVVNNNFLSWYQQKPGKAPKLLIYDASNLASGVPDRFSGSGSGTDFTFTISSLQPEDIATYYCLGGYDDDAENAFGGGTKVEIKRTVAAPSVFIFPPSDEQLKSGTASVVCLLNNFYPREAKVQWKVDNALQSGNSQESVTEQDSKDSTYSLSSTLTLSKADYEKHKVYACEVTHQGLSSPVTKSFNRGEC
notes: variant of m1 without Fc mutations
B4: the binding result in assay [2] is reported as “binds”.

B5: IgG1-CD134-003-HC6LC2-P329R-E345R (antibody)
heavy: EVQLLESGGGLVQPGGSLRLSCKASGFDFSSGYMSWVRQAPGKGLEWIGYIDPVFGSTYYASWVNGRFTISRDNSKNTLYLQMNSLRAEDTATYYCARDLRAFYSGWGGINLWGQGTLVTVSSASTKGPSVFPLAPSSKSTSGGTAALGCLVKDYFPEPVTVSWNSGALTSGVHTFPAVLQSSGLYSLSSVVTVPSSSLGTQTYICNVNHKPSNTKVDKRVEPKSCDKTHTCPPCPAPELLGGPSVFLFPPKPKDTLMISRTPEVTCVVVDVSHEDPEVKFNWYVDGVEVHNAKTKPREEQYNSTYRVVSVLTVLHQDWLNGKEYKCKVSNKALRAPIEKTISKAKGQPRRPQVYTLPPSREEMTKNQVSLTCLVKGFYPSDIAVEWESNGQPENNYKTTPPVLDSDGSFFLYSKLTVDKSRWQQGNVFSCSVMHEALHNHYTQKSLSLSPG
light: B4 light
notes: humanized; human IgG1 with P329R and E345R (Eu); also called IgG1-CD134-003-HC6LC2-RR
B5: in [3], the equilibrium dissociation constant (Kd) amounted to 27 nM, the koff worked out at 0.0029 s⁻¹ and the kon was found to be 110000 M⁻¹ s⁻¹.

B6: IgG1-b12 (antibody)
heavy: not shown
VL: EIVLTQSPGTLSLSPGERATFSCRSSHSIRSRRVAWYQHKPGQAPRLVIHGVSNRASGISDRFSGSGSGTDFTLTITRVEPEDFALYYCQVYGASSYTFGQGTKLERK
notes: wild-type Fc domain; also called anti-HIV gp120 antibody IgG1-b12
As for B6, the binding result in assay [4], in assay [5], in assay [6], in assay [7] and in assay [9] was “binds” throughout. Further, the results for the “EC50 (read off the curve)” value in [8] and in [10] were approximately 30 nM and approximately 20 nM, respectively.
